Data from a protein production outcome set (Wang et al. 2014).

Assay: label from the status in PepcDB records
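Further: failed if final PepcDB status was selected cloned or expressed and not failed if soluble or beyond.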

Sequence | protein production
MPPFMSGLRAVSSLLSCRNAISRKLVSRSGIPRGSFVSDQIRRFGSLSGVERCSSNWLMSNDDARVSFRRLPGSVSLLQRRHFLGCGDGEEGGGELSKIYEERRVLGYTPEQMFNVVAAVDLYHGFVPWCQRSEVLKEYPDGSFDAELEIGFKFLVESYISHVESERPKWIKTTARDTGLFDHLINLWQFKPGPIPGTCDLHFHVDFKFNSPLYRQVASMFFKEVASRLVGAFSDRCRLVYGPGVRVDENAYEQRA | failed
MASLAAVVRALLRRESQRATGYALREWTMLTARHLPYLQGQLTLGRIAAVGHLQRSTLGRSEWHTSSAPLFGEGRGRWHWGLSTSDVVDGSDHEHHSTETGGRELPSFKTGELGSDVDGDRAALEAWLAQIRDETSGWPELSLDALRDELDEELEGDDDDNDDDDDETYENEELLKALQEAVNRHRTPVVALVSGRVVHLRRTAAPKRSPRAGRVPRNEPQTTSRDTTKADANDNECT | not failed
MQAFFANPAVSWTLLTTGGILLVVIWVLLSLAFLLLADRKIWAGVQMRKGPNVVGPFGLLQSFADFFKFVLKEIVIPAGADKVVFILAPLISLILAFVGWAVVPFAPGWVVSNLNVGILYLLAMSSLGVYGIIMGGWASNSKYPFLGALRSAAQMVSYEVSIGLIIITVILLAGSMNLSTIVEKQSGWIWNWNVFGGGLNNLVLLPVMVVAMGMFYISALAETNRPPFDLPEAESELVAGYQVEYSSTPYLLFMVAEYSNIVLMCAMISVLFFGGWNPGFPTDFLSSWHPFAANLFLALVFYAKICFWFFMFAMAKAIVPRYRYDQLMRLGWKVFLPTSLVLVAAVAAWRVFGPAA | failed
MDFSLTEEQELLLASIRELITSNFPEEYFRTCDQTGTYPKEFMQALAENGISMLGVPEEFGGIPADYVTQMLALMEISKCGAPAFLITNGQCIHSMRRFGSAEQLRKTAESTLATGDPAYALALTEPGAGSDNNSATTTWTRKNGKVYLNGQKTFITGAKEYPYMLVLARDTEPKDPKKAFTLWWVDSNKPGIKINPLHKIGWHMLSTCEVYLDNVEVDESDRVGEEGMGFLNVMYNFEMERLINAARSTGFAECAFEDAARYANQRIAFGKPIGHNQMIQEKLALMAIKIENMRNMVLKVAWQADREESLRTSAALAKLYCARTAMEVIDDAIQIMGGLGYTDEARVSRFWRDVRCERIGGGTDEIMIYVAGRQILKDYQNK | failed
AADPVVVPANMEPLTIEGNRFVTLCIMIRTTPWEVSRDVKLHPRDEVDWHTLEGVRALREAFATNNPNGRLTWGFTMNALEDGRKNYREIRDYVVECQKKYGDEVTYFPGYFPAMYLPRERVNREMSEAIEIISKMVGNGYRPQSIMGGFLSADNLRYLAEKENIHVAHAVIWSQHNIDGGGADGSPSYPFYPSTEHFCKPAQGKSDFIDCVNLDGWTMDFICARRSGQTGHGIDGYNSRRGVGPIETYKGWGLDLGHREVMHTEAIHFDKGLELNGFGWVANIWEAQMVHEFGKDLICDAMKMWVTGTKERWPDTHFVTFGEFGELWRKQYKSNDDWNYRFVERGSGLGDSYNNLEIKWFMNKEFRLALLRDWHTKNSPAYVIDFTRYDLQAHEPADPSPEKPAKDWSLINKINQKALRPQDKPVLIDKLEKEDQDLIRKYYPELLK | not failed
MGQELLVRAHEPETADIEIIPVTTVVQVTEQNSTGDAAVALDTVTVVGERYVDDIVATLTTLRVGMAVLLQRESGNQYDDNAISVWTLQHAKLGYIARYQNQPYATLMDQGQRLYGIVTVLDQQKQHLELMLWRTTAVPSPIEALEHHHHHH | failed
MEYKKFVEARRELNEKVLSRGTLNTKRFFNLDSAVYRPGKLDVKTKELMGLVASTVLRCDDCIRYHLVRCVQEGASDEEIFEALDIALVVGGSIVIPHLRRAVGFLEELREMEKNGETISL | not failed
MSESLDFSPYLERWALQPDGEPFATHSSRLLPVRHRGAAAMLKISSAEEERFGHVLLNWWDGQGAARVLAYDHQALLMERATGGRSLLEMVRRGDDDEATRILCQAIERIHAPRPGPLPELTPLERWFDSLYAAERRYGGLYVDCANAARYLLETAREQRPLHGDIHHGNVLDFGERGWQVIDPKRLYGERGYDYANLFTNPDAKTAQAPGRFERQLEIVIAASGLQRRRLLQWILAWTGLSAAWFDEDGSREETEAELAIARLALANLARTPAQ | failed
LAAWHLSSADYIADTLRLQGMTARGQVLDFGGGIGTHALSAAALPQVDHVWFVDLNPHNQAFVEQRAAALGLSDKLSVHRDLESTGEVRFDTVVCLDVLEHLPDPSAQLQAFHQRMASDATALLNWYFFKGHDGEYPFHFDDPQ | failed
MKVLKFGGTSVGDAERIRSVARLITSVKGRKIIVLSAMAGTTNSLVEIASHLVKRNVAQAKEVVQVLREKYHREINALYKRPDTLSAAKKAVDSLLDSLGHMCDVEGFTLFEEKRVLIL | failed
MKEELFKEKSRYITGFVLIIVADLILYADNLLLFWAVLGGIYAVGFSEALRLFQVKASFSLYLILVLSWVAAYFNGRPIECALISAMVMASVIAYQKAHHSEAILPFLYPGVGFFALFGVYKDFGAVAIIWLLVVVVASDVGAFFGGKLLGKTPFTPTSPNKTLEGALIGVVLASVLGSFVGMGKLSGGFFMALFFSFLIALVAVFGDLYESYLKRKVGIKDSGKILPGHGGVLDRLDSMLFGALGLHALLYFLEIWKETAVFLGD | failed
RMSHHYATIEVSQQLRQLLGDQLVILLRETPDGQALERSQNDFRRVLEQGRANTVDSAEQAALDGVRDAYLQLQAHTPALLEAPMADNDGFSEAFNGLRLRLQDLQQLALAGISEAE | not failed
MSQVSTEFIPTRIAILTVSNRRGEEDDTSGHYLRDSAQEAGHHVVDKAIVKENRYAIRAQVSAWIASDDVQVVLITGGTGLTEGDQAPEALLPLFDREVEGFGEVFRMLSFEEIGTSTLQSRAVAGVANKTLIFAMPGSTKACRTAWENIIAPQLDARTRPCNFHPHLKK | not failed
MSLDCRERIEKDLELLEKNLMEMKSIKLSDDEEAVVERALNYRDDSVYYLEKGDHITSFGCITYAHGLLDSLRMLHRIIEGHHHHHH | not failed
MLTGNKPAVQRRFIGLLMLSVLVAGCSSNPLANFAPGYPPTIEPAQPAVSPPTSQDPAGAVRPLSGHPRAALFDNGTRQLVALRPGADSAAPASIMVFDDVHVAPRVIFLPGPAAALTSDDHGTAFLAARGGYFVADLSSGHTARVNVADAAHTDFTAIARRSDGKLVLGSADGAVYTLAKNPAVDPASGAATVASRTKIFARVDALVTQGNTTVVLDRGQTSVTTIGADGHAQQALRAGQGATTMAADPLGRVLIADTRGGQLLVYGVDPLILRQAYPVRQAPYGLAGSRELAWVSQTASNTVIGYDLTTGIPVEKVRYPTVQQPNSLAFDETSDTLYVVSGSGAGSRFIEHAAGTR | failed
MYKLMIADDEPLIRRGIKQLIDLSSLQIGEIYEASTGEEALKVFEEFKPEIVLMDINMPKIDGLSVAKKIKSINPDTKIAIITGYNYFDYAQTAIKIGVEDYILKPISKSDVSEIIVKLVSSLQKERKDKEIEKVLEKITTVDTQDNIAKNNYKELIQNIIEESYTDSQFTLSVLSEKLDLSSGYLSIMFKKNFGIPFQDYLLQKRMEKAKLLLLTTELKNYEIAEQVGFEDVNYFITKFKKYYQITPKQYREMVLKNENE | not failed
MQENKKIDENIDDFLKIVVDLNHIQIEVRDEVQAILLLSSLPSRYDGLVETMKYSNSREKLRLNDVMVAARDKEREMSQNNRLIAEGHYARRRPVGKNNNQGNKGKNRSWSKSADGKRVCWICGKEKHFNEQCYKWLERNKPK | failed
MTSRRLEESMGAVQMGLVNMFKGFQSKVLPPLSPKVVTEEEVNRMLTPSEFLKEMSLTTEQRLAKTRLMCRPQIIELLDMGETTHQKFSGIDLDQALFQPFPSEIIFQNYTPCEVYEVPLILRNNDKIPRLVKVVEESSPYFKVISPKDIGHKVAPGVPSIFRILFTPEENKDYAHTLTCVTEREKFIVPIKARGARAILDFPDKLNFSTCPVKYSTQKILLVRNIGNKNAVFHIKTCRPFSIEPAIGTLNVGESMQLEVEFEPQSVGDHSGRLIVCYDTGEKVFVSLYGAAIDMNIRLDKNSLTIEKTYISMANQRTITIHNRSNIIAHFLWKVFATQQEEDREKYRACDDLIKEEKDETDEFFEECITDPLLREHLSVLSRTFANQRRLVQGDSKLFFNNVFTVEPLEGDVWPNSSAEITVYFNPLEAKLYQQTIYCDILGREIRLPLRIKGEGMGPKIHFNFELLDIGKVFTGSAHCYEAILYNKGSIDALFNMTPPTSALGACFVFSPKEGIIEPSGVQAIQISFSSIILGNFEEEFLVNVNGSPEPVKLTIRGCVIGPTFHFNVPALHFGDVSFGFPHTLICSLNNTSLIPMTYKLRIPGDGLGHKSISYCEQHVDYKRPSWTKEEISSMKPKEFTISPDCGTIRPQGFAAIRVTLCSNTVQKYELALVVDVEGIGEEVLALLITARYCSPACSSPESPPSLQ | not failed
MELRPSGDSGSSDVDAEISDGFSPLDTSHRDVADEGSLLRRAEMYQDYMKQVPIPTNRGSLIPFTSWVGLSISMKQLYGQPLHYLTNVLLQRWDQSRFGTDSEEQRLDSIIHPTKAEATIWLVEEIHRLTPSHLHMALLWRSDPMYHSFIDPIFPEK | not failed
MRLLVSCVDSGSIKEVLCNIGTDTSVQSALQPFHVAPHLAEGLKAYVDRMWVISEDEAILARNSGVVELVKISKHLKENEALQVDPKGESKNEKSLSDDLPKFDISEFEITSSVSDLFDDAKLESLSSKSVKRTKLVDGFVTLCPIKKDSSNNTFVAATKSGLLHIIKKGEDKKLIKLASLGLKAPVEFLQLYDLEDTDTDKYIFAYGGEENLIKLVEIDSSFQSLKQIWEAKNVKNDRLDMRVPVWPMALRFLEPSPGKTEKGKLNYQFAAITRWSHLTKYSTQHGRKPFAQIDLLPNREPLSQMEVFDAKGENVVSSLGNFQSETFNELNVITTDYKKNVFKFDGNGRMLGKVGRDDITGSSTYIHVHDGKYLLQGGLDRYVRIFDIKTNKMLVKVYVGSRINFIVMLDDVEIEMPLSPSAKAAKGKQKRKVTELEEDADELWNKLEGKVAASKASKKSKI | not failed
MARVQIDLPDKFIYSTKLQVRIGDVAAGFHMGNHMLISYLNEALLLFFREAGVIGMFGTKMNLIDADLAVIYKTEAAHGDMLRVDLGIIPSGIYGFDAFYRVTNERTGEEIAIAKMAMLFFDYEQRQISPVPEAFTVALPKIYNRAIPSTE | failed
MSHTAEIPMVPGSESPLELKPLKAVDPKAVYHRRAQRLLSLAKDSPLADYFELCRRVVAIQARLAAEADFGQLLAWGKDEAIPLSHLGSEADSYWQGLLQQLLSDLLPQVGEDLARVLRLLMQQSPEQLTSWGASLRQGHMSAVPARFSLFIWAAMGVYWSHWAPMVIKRIDQRKVAQQNLCPICGSHPVASVIVDQPRAGLRYLHCSLCESEWHYIRAHCTSCGQDKGTTLWSFDDTQAQVRIESCDECHGYTKMMFVEKSPLMDVVADDLATLMLDSELNAKGFGATTVNPLLLAHETEQ | failed
MEIVYVYVKKRSEFGKQCNFSDRQAELNIDISPNPELAALYVERNPVDTGIQCSASMSEHEANTERFEMENCGVNHVEGGWPKDVNPQELEQTIRFRKKVEKDENYINAVMQLGSIMEHCIKQNNAIDIYEEYFDDEEAVEVTEEAPSAKTINVFRDPQEIKRTATHLSWHPDGNKKLAVAYSCLQFQRSPMGMSHDSYIWDLENPNRPEIALKPSSPLITLEYNPKDSHVLLGGCYNGQIACWDTRKGSLVAELSTIEFSHRDPVYGTIWLQSKTGTECFSASTDGQVMWWDIRKISEPTEVVIMDITRKEQLENALGAISLEFESTLETPFQMGRGLGCILSRRPELKQQNEKLEGKPLTLPSHHRVPVRLGFYPCFPTNKRGLGDTCRSWLSPSSWAQGTKLRLSVLVANAVEPVTAWAAFTHMQSLHTQEHTVSTLGRFYFMYKQISKILTRTLTGASSVLKVCDDPLFCLRVQDTGCLIACGSELGTTTLLEVSSSLSTLQRNERNIASSIFERETRREKILEARHREMRLKEKGKAEGRDDDQKEEETALDLDELVNKAEEEFFEVIFAELKRKEAEALKKKPKPKKASIEVEGEDELEDIAGEEEESGIIMGEDTGEDDMDEKNEGGAP | failed
